Test results reported in US20260193326A1 (published 2026).
Residue numbers refer to the chain shown, from its start.

B1: A4-047 (VHH)
VHH: VQLQESGGGLVQPGGSLRLSCAASGSRFSINTMGWYRQAPGKQRELVATVTRGGSTNYAGSVKGRFTISRDNAKNTVYLQMNSLRPEDTAVYYCHVDEVRQSSWTTSNLWGQGTQVTVSS
B2: A4-026 (VHH)
VHH: B1 VHH with R27N, S29R, T49P, G60D, Q101E
B3: A4-009 (VHH)
VHH: B1 VHH with V11A, L46F, T49A, S83T, L109I
B4: A4-010 (VHH)
VHH: B1 VHH with P13A, R27I, T32S, S55N, G60D, Q101E
B5: A4-030 (VHH)
VHH: B1 VHH with R27S, S29T, T49A, V77I, V99I
B6: A4-002 (VHH)
VHH: B1 VHH with S26R, R27S, T49A, V96I, L109I
B7: A4-018 (VHH)
VHH: B1 VHH with P13A, L46F, S55N, G60E, Q101D, L109I
B8: A4-023 (VHH)
VHH: B1 VHH with R27A, T49S, R52P, G60D, V77I, V96L, Q101E
B9: A4-019 (VHH)
VHH: B1 VHH with P13A, R27T, V50I, G60D, L109I
B10: A4-005 (VHH)
VHH: B1 VHH with P13A, S26R, R27H, T49A, S55G, V96I, L109I
B11: A4-029 (VHH)
VHH: B1 VHH with R27N, A39R, P40A, G60D, V96I, V99I, Q101E
B12: A4-017 (VHH)
VHH: B1 VHH with R27I, T32L, V50I, S55N
B13: A4-013 (VHH)
VHH: B1 VHH with T32S, S55N, G60D, Q101E
B14: A4-016 (VHH)
VHH: B1 VHH with R27I, T32L, V50I, R52P, S55N
B15: A4-015 (VHH)
VHH: B1 VHH with R27I, T32L, P40A, V50I, R52P, S55N
B16: A4-003 (VHH)
VHH: B1 VHH with A22V, S26R, R27S, T49A, V96I, L109I
B17: A4-031 (VHH)
VHH: B1 VHH with R27G, R52S, G53A, V99I
B18: A4-008 (VHH)
VHH: B1 VHH with P13A, S26R, R27A, G41P, V77I, L109I
B19: A4-014 (VHH)
VHH: B1 VHH with T32S, S55N, Q101E
B20: A4-020 (VHH)
VHH: B1 VHH with P13A, R27T, V50I, S55N, G60D
B21: A4-004 (VHH)
VHH: B1 VHH with T49A, V96I, L109I
B22: A4-007 (VHH)
VHH: B1 VHH with P13A, S26R, R27H, T49A, V96I, L109I
B23: A4-022 (VHH)
VHH: B1 VHH with R27G, G53D, G60D, S61F, V96L, Q101E
B24: A4-006 (VHH)
VHH: B1 VHH with S26R, R27H, T49A, V96I, L109I
B25: A4-027 (VHH)
VHH: B1 VHH with R27N, T49A, V50L, G60D, Q101E
B26: A4-028 (VHH)
VHH: B1 VHH with R27N, S55D, G60D, V99I, Q101E
B27: A4-025 (VHH)
VHH: B1 VHH with R27N, S29R, G60D, A73P, N75D, Q101E

Molecular target: T1, AAV8
T1 construct: also called adeno-associated virus serotype 8
Assay: SPR, AAV on CM5 chip;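 also: surface plasmon resonance with AAV amine-coupled to the chip as ligand, nanobodies injected as analyte over a concentration series, rate constants and affinity fitted from binding curves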
Description: (§1) AAV was amine-coupled to a CM5 sensor chip at a density of 500-800 response units (RU). Nanobodies were injected at seven concentrations (1-100 nM) with a flow rate of 45 μL/min, and chip regeneration was performed using glycine-HCl (pH 1.5). Binding curves at different nanobody concentrations were used to calculate kinetic parameters (Kₐ, Kd, KD) (Table 2 and FIG. 2).

Binder | Kd | koff | kon
B1 | 0.104 nM | 2e-05 s⁻¹ | 193000 M⁻¹ s⁻¹
B2 | 27.2 nM | 0.00184 s⁻¹ | 67700 M⁻¹ s⁻¹
B3 | 103 nM | 0.00219 s⁻¹ | 21400 M⁻¹ s⁻¹
B4 | 169 nM | 0.00249 s⁻¹ | 14700 M⁻¹ s⁻¹
B5 | 43.7 nM | 0.00034 s⁻¹ | 7780 M⁻¹ s⁻¹
B6 | 57.7 nM | 0.00618 s⁻¹ | 107000 M⁻¹ s⁻¹
B7 | 34.9 nM | 0.00392 s⁻¹ | 112000 M⁻¹ s⁻¹
B8 | 143 nM | 0.00125 s⁻¹ | 8730 M⁻¹ s⁻¹
B9 | 6.84 nM | 0.00077 s⁻¹ | 113000 M⁻¹ s⁻¹
B10 | 4.39 nM | 0.00197 s⁻¹ | 449000 M⁻¹ s⁻¹
B11 | 0.486 nM | 4e-05 s⁻¹ | 82300 M⁻¹ s⁻¹
B12 | 140 nM | 0.0002 s⁻¹ | 1430 M⁻¹ s⁻¹
B13 | 1220 nM | 0.00737 s⁻¹ | 6060 M⁻¹ s⁻¹
B14 | 9.58 nM | 0.00146 s⁻¹ | 152000 M⁻¹ s⁻¹
B15 | 9.74 nM | 0.0017 s⁻¹ | 174000 M⁻¹ s⁻¹
B16 | 1.2 nM | 0.000277 s⁻¹ | 232000 M⁻¹ s⁻¹
B17 | 182 nM | 0.00923 s⁻¹ | 50700 M⁻¹ s⁻¹
B18 | 523 nM | 0.00164 s⁻¹ | 3140 M⁻¹ s⁻¹
B19 | 384 nM | 0.00109 s⁻¹ | 2840 M⁻¹ s⁻¹
B20 | 0.506 nM | 5.66e-05 s⁻¹ | 112000 M⁻¹ s⁻¹
B21 | 1.71 nM | 0.000286 s⁻¹ | 167000 M⁻¹ s⁻¹
B22 | 47.4 nM | 0.00367 s⁻¹ | 77300 M⁻¹ s⁻¹
B23 | 1.19 nM | 6.2e-05 s⁻¹ | 52100 M⁻¹ s⁻¹
B24 | 5.87 nM | 0.00224 s⁻¹ | 381000 M⁻¹ s⁻¹
B25 | 105 nM | 0.00085 s⁻¹ | 8100 M⁻¹ s⁻¹
B26 | 6.34 nM | 0.00084 s⁻¹ | 133000 M⁻¹ s⁻¹
B27 | 2.09 nM | 0.00026 s⁻¹ | 124000 M⁻¹ s⁻¹

Molecular target: T2, AAV9
T2 construct: also called adeno-associated virus serotype 9
Assay: SPR, AAV on CM5 chip;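 also: surface plasmon resonance with AAV amine-coupled to the chip as ligand, nanobodies injected as analyte over a concentration series, rate constants and affinity fitted from binding curves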
Description: as §1

Binder | Kd | koff | kon
B1 | 29.1 nM | 0.00147 s⁻¹ | 50500 M⁻¹ s⁻¹
B2 | 31 nM | 0.00253 s⁻¹ | 81600 M⁻¹ s⁻¹
B3 | 100 nM | 0.0139 s⁻¹ | 139000 M⁻¹ s⁻¹
B4 | 380 nM | 0.0329 s⁻¹ | 86600 M⁻¹ s⁻¹
B5 | 27.2 nM | 0.00025 s⁻¹ | 9200 M⁻¹ s⁻¹
B6 | 232 nM | 0.011 s⁻¹ | 47500 M⁻¹ s⁻¹
B7 | 62.1 nM | 0.00745 s⁻¹ | 120000 M⁻¹ s⁻¹
B8 | 2.88 nM | 0.00056 s⁻¹ | 195000 M⁻¹ s⁻¹
B9 | 451 nM | 0.00525 s⁻¹ | 11700 M⁻¹ s⁻¹
B10 | 88.5 nM | 0.021 s⁻¹ | 237000 M⁻¹ s⁻¹
B11 | 14.6 nM | 0.00141 s⁻¹ | 96900 M⁻¹ s⁻¹
B12 | 0.724 nM | 4e-05 s⁻¹ | 55300 M⁻¹ s⁻¹
B13 | 480 nM | 0.0379 s⁻¹ | 79100 M⁻¹ s⁻¹
B14 | 131 nM | 0.00047 s⁻¹ | 3600 M⁻¹ s⁻¹
B15 | 3.39 nM | 0.00017 s⁻¹ | 50100 M⁻¹ s⁻¹
B16 | 184 nM | 0.00152 s⁻¹ | 8240 M⁻¹ s⁻¹
B17 | 2240 nM | 0.00824 s⁻¹ | 3690 M⁻¹ s⁻¹
B18 | 14.5 nM | 0.00012 s⁻¹ | 8270 M⁻¹ s⁻¹
B19 | 13.3 nM | 0.00085 s⁻¹ | 64000 M⁻¹ s⁻¹
B20 | 73.7 nM | 0.00169 s⁻¹ | 23000 M⁻¹ s⁻¹
B21 | 4.51 nM | 0.00081 s⁻¹ | 180000 M⁻¹ s⁻¹
B22 | 6.43 nM | 0.00089 s⁻¹ | 138000 M⁻¹ s⁻¹
B23 | 28.5 nM | 0.0001 s⁻¹ | 3510 M⁻¹ s⁻¹
B24 | 192 nM | 0.0244 s⁻¹ | 127000 M⁻¹ s⁻¹
B25 | 208 nM | 0.00085 s⁻¹ | 4090 M⁻¹ s⁻¹
B26 | 1.09 nM | 9e-05 s⁻¹ | 82400 M⁻¹ s⁻¹
B27 | 0.737 nM | 0.00012 s⁻¹ | 163000 M⁻¹ s⁻¹

Molecular target: T3, AAV5
T3 construct: also called adeno-associated virus serotype 5
Assay: SPR, AAV on CM5 chip;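 also: surface plasmon resonance with AAV amine-coupled to the chip as ligand, nanobodies injected as analyte over a concentration series, rate constants and affinity fitted from binding curves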
Description: as §1

Binder | Kd | koff | kon
B1 | 7.79 nM | 0.00144 s⁻¹ | 185000 M⁻¹ s⁻¹
B2 | 37.4 nM | 0.00625 s⁻¹ | 167000 M⁻¹ s⁻¹
B3 | 141 nM | 0.00698 s⁻¹ | 49700 M⁻¹ s⁻¹
B4 | 267 nM | 0.00038 s⁻¹ | 1420 M⁻¹ s⁻¹
B5 | 84.4 nM | 0.00028 s⁻¹ | 3320 M⁻¹ s⁻¹
B6 | 138 nM | 0.00063 s⁻¹ | 4570 M⁻¹ s⁻¹
B7 | 0.962 nM | 0.00014 s⁻¹ | 146000 M⁻¹ s⁻¹
B8 | 12.4 nM | 0.00126 s⁻¹ | 102000 M⁻¹ s⁻¹
B9 | 48.9 nM | 0.00156 s⁻¹ | 31900 M⁻¹ s⁻¹
B10 | 1860 nM | 0.00193 s⁻¹ | 
B11 | 92.8 nM | 0.00155 s⁻¹ | 16700 M⁻¹ s⁻¹
B12 | 542 nM | 0.00164 s⁻¹ | 3030 M⁻¹ s⁻¹
B13 | 7.24 nM | 0.00011 s⁻¹ | 15200 M⁻¹ s⁻¹
B14 | 23.9 nM | 0.00158 s⁻¹ | 66000 M⁻¹ s⁻¹
B15 | 2.76 nM | 0.00052 s⁻¹ | 189000 M⁻¹ s⁻¹
B16 | 8.24 nM | 0.00019 s⁻¹ | 23100 M⁻¹ s⁻¹
B17 | 41.9 nM | 0.00624 s⁻¹ | 149000 M⁻¹ s⁻¹
B18 | 66 nM | 0.0174 s⁻¹ | 264000 M⁻¹ s⁻¹
B19 | 597 nM | 0.00529 s⁻¹ | 8860 M⁻¹ s⁻¹
B20 | 169 nM | 0.00094 s⁻¹ | 5550 M⁻¹ s⁻¹
B21 | 37.5 nM | 0.00678 s⁻¹ | 181000 M⁻¹ s⁻¹
B22 | 1260 nM | 0.0248 s⁻¹ | 19700 M⁻¹ s⁻¹
B23 | 9.61 nM | 0.00152 s⁻¹ | 158000 M⁻¹ s⁻¹
B24 | 1.78 nM | 0.00032 s⁻¹ | 179000 M⁻¹ s⁻¹
B25 | 236 nM | 0.00194 s⁻¹ | 8220 M⁻¹ s⁻¹
B26 | 26.4 nM | 0.00162 s⁻¹ | 61300 M⁻¹ s⁻¹
B27 | 85.5 nM | 0.00041 s⁻¹ | 4800 M⁻¹ s⁻¹
